# Source: patent publication US20230265151A1, “GIP/GLP1 CO-AGONIST COMPOUNDS” (priority 2020, published 2023)
# Residue numbers refer to the chain shown, from its start.
# T1: human GIP receptor (human, UniProt P48546 22-466)
# T1 sequence (looked up): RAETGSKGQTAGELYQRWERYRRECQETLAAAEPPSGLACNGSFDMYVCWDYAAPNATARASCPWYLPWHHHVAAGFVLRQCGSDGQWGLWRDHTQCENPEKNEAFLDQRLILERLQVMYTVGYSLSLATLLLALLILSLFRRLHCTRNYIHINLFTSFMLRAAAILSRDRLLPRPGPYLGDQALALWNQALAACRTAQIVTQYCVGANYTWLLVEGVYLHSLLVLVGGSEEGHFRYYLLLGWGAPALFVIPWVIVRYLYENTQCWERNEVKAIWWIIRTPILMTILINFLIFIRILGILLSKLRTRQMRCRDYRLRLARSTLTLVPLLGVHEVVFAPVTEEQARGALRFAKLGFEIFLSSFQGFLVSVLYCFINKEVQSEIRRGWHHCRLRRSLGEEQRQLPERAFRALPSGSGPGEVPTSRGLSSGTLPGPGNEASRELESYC
# T2: human GIP receptor (human, UniProt P48546 22-466)
# T2 sequence (looked up): T1 sequence (looked up)
# T3: human GIP receptor (human) (UniProt P48546)
# T3 sequence (looked up): T1 sequence (looked up)
# B1: Y-Aib-EGT-αMeF(2F)-TSD-4Pal-SI-αMeL-LD-Orn-IAQ-Aib-EFI-(D-Glu)-αMeY-LIK((2-[2-(2-Amino-ethoxy)-ethoxy]-acetyl)2-(γ-Glu)-CO-(CH2)14-CH3)GGK((2-[2-(2-Amino-ethoxy … (peptide)
# peptide: YXEGTXTSDXSIXLDXIAQXEFIXXLIKGGKSSGAPPPS
# modifications: Aib2, αMeF(2F)6, 4Pal10, αMeL13, Orn16, Aib20, D-Glu24, αMeY25; acylated K28, K31 (groups as in name); C-terminal amide
# B2: Y-Aib-EGT-αMeF(2F)-TSD-4Pal-SI-αMeL-LD-Orn-IAQ-Aib-EFIK((2-[2-(2-Amino-ethoxy)-ethoxy]-acetyl)2-(γ-Glu)-CO-(CH2)12-CO2H)-αMeY-LIK((2-[2-(2-Amino-ethoxy)-ethoxy] … (peptide)
# peptide: B1 peptide with X24K, K31P
# modifications: Aib2, αMeF(2F)6, 4Pal10, αMeL13, Orn16, Aib20, αMeY25; acylated K24, K28 (groups as in name); C-terminal amide
# B3: Y-Aib-EGT-αMeF(2F)-TSD-4Pal-SI-αMeL-LD-Orn-IAQ-Aib-K((2-[2-(2-Amino-ethoxy)-ethoxy]-acetyl)2-(γ-Glu)-CO-(CH2)12-CO2H)FI-(D-Glu)-αMeY-LIEGGK((2-[2-(2-Amino-ethox … (peptide)
# peptide: B1 peptide with E21K, K28E
# modifications: Aib2, αMeF(2F)6, 4Pal10, αMeL13, Orn16, Aib20, D-Glu24, αMeY25; acylated K21, K31 (groups as in name); C-terminal amide
# B4: Y-Aib-EGT-αMeF(2F)-TSD-4Pal-SI-αMeL-LD-Orn-IAQ-Aib-EFIK((εK)-(εK)-(γ-Glu)-CO-(CH2)12-CO2H)-αMeY-LIEGGK((εK)-(εK)-(γ-Glu)-CO-(CH2)12-CO2H)SSGAPPPS-NH2 (peptide)
# peptide: B1 peptide with X24K, K28E
# modifications: Aib2, αMeF(2F)6, 4Pal10, αMeL13, Orn16, Aib20, αMeY25; acylated K24, K31 (groups as in name); C-terminal amide
# B5: Y-Aib-EGT-αMeF-TSD-4Pal-SI-αMeL-LD-Orn-K((2-[2-(2-Amino-ethoxy)-ethoxy]-acetyl)2-(γ-Glu)-CO-(CH2)12-CO2H)AQ-Aib-E-αMeF-I-(D-Glu)-αMeY-LIEGGK((2-[2-(2-Amino-etho … (peptide)
# peptide: B1 peptide with I17K, F22X, K28E
# modifications: Aib2, αMeF6, 4Pal10, αMeL13, Orn16, Aib20, αMeF22, D-Glu24, αMeY25; acylated K17, K31 (groups as in name); C-terminal amide
# B6: Y-Aib-EGT-αMeF-TSD-4Pal-SI-αMeL-LD-Orn-K((2-[2-(2-Amino-ethoxy)-ethoxy]-acetyl)2-(γ-Glu)-CO-(CH2)10-CH3)AQ-Aib-E-αMeF-I-(D-Glu)-αMeY-LIEGGK((2-[2-(2-Amino-ethox … (peptide)
# peptide: B1 peptide with I17K, F22X, K28E
# modifications: Aib2, αMeF6, 4Pal10, αMeL13, Orn16, Aib20, αMeF22, D-Glu24, αMeY25; acylated K17, K31 (groups as in name); C-terminal amide
# B7: Example 432 (peptide)
# peptide: YXEGTXTSDKXIXLDXKAQXXFIXXLIEGGPSSGAPPPS
# modifications: Y-Aib-EGT-αMeF(2F)-TSDK((2-[2-(2-Amino-ethoxy)-ethoxy]-acetyl)3-(γ-Glu)-CO-(CH2)10-CH3)-Aib-I-αMeL-LD-Orn-K((2-[2-(2-Amino-ethoxy)-ethoxy]-acetyl)3-(γ-Glu)-CO-(CH2)10-CH3)AQ-Aib-Orn-FI-(D-Glu)-αMeY-LIEGGPSSGAPPPS-NH2
# B8: Example 438 (peptide)
# peptide: B7 peptide with K10X, X21E, F22X, E28K
# modifications: Y-Aib-EGT-αMeF(2F)-TSD-4Pal-Aib-I-αMeL-LD-Orn-K((2-[2-(2-Amino-ethoxy)-ethoxy]-acetyl)3-(γ-Glu)-CO-(CH2)10-CH3)AQ-Aib-E-αMeF-I-(D-Glu)-αMeY-LIK((2-[2-(2-Amino-ethoxy)-ethoxy]-acetyl)3-(γ-Glu)-CO-(CH2)10-CH3)GGPSSGAPPPS-NH2
# B9: Example 445 (peptide)
# peptide: B7 peptide with X16G, X21E
# modifications: Y-Aib-EGT-αMeF(2F)-TSDK((2-[2-(2-Amino-ethoxy)-ethoxy]-acetyl)2-(γ-Glu)-CO-(CH2)10-CH3)-Aib-I-αMeL-LDGK((2-[2-(2-Amino-ethoxy)-ethoxy]-acetyl)2-(γ-Glu)-CO-(CH2)10-CH3)AQ-Aib-EFI-(D-Glu)-αMeY-LIEGGPSSGAPPPS-NH2
# B10: Example 488 (peptide)
# peptide: B7 peptide with K10X, K17Q, X21K, E28K
# modifications: Y-Aib-EGT-αMeF(2F)-TSD-4Pal-Aib-I-αMeL-LD-Orn-QAQ-Aib-K((2-[2-(2-Amino-ethoxy)-ethoxy]-acetyl)2-(γ-Glu)-CO-(CH2)12-CO2H)FI-(D-Glu)-αMeY-LIK((2-[2-(2-Amino-ethoxy)-ethoxy]-acetyl)2-(γ-Glu)-CO-(CH2)12-CO2H)GGPSSGAPPPS-NH2
# B11: Example 436 (peptide)
# peptide: B7 peptide with X21E, F22X
# modifications: Y-Aib-EGT-αMeF(2F)-TSDK((2-[2-(2-Amino-ethoxy)-ethoxy]-acetyl)3-(γ-Glu)-CO-(CH2)10-CH3)-Aib-I-αMeL-LD-Orn-K((2-[2-(2-Amino-ethoxy)-ethoxy]-acetyl)3-(γ-Glu)-CO-(CH2)10-CH3)AQ-Aib-E-αMeF-I-(D-Glu)-αMeY-LIEGGPSSGAPPPS-NH2
# B12: Example 434 (peptide)
# peptide: B7 peptide with K10X, E28K
# modifications: Y-Aib-EGT-αMeF(2F)-TSD-4Pal-Aib-I-αMeL-LD-Orn-K((2-[2-(2-Amino-ethoxy)-ethoxy]-acetyl)3-(γ-Glu)-CO-(CH2)10-CH3)AQ-Aib-Orn-FI-(D-Glu)-αMeY-LIK((2-[2-(2-Amino-ethoxy)-ethoxy]-acetyl)3-(γ-Glu)-CO-(CH2)10-CH3)GGPSSGAPPPS-NH2
# B13: Example 437 (peptide)
# peptide: B7 peptide with K10X, X21K, F22X
# modifications: Y-Aib-EGT-αMeF(2F)-TSD-4Pal-Aib-I-αMeL-LD-Orn-K((2-[2-(2-Amino-ethoxy)-ethoxy]-acetyl)3-(γ-Glu)-CO-(CH2)10-CH3)AQ-Aib-K((2-[2-(2-Amino-ethoxy)-ethoxy]-acetyl)3-(γ-Glu)-CO-(CH2)10-CH3)-αMeF-I-(D-Glu)-αMeY-LIEGGPSSGAPPPS-NH2
# B14: Example 435 (peptide)
# peptide: YXEGTXTSDXXIXLDXKAQXXFIXXLIEGGPSSGAPPPSK
# modifications: Y-Aib-EGT-αMeF(2F)-TSD-4Pal-Aib-I-αMeL-LD-Orn-K((2-[2-(2-Amino-ethoxy)-ethoxy]-acetyl)3-(γ Glu)-CO-(CH2)10CH3)AQ-Aib-Orn-FI-(D-Glu)-αMeY-LIEGGPSSGAPPPSK((2-[2-(2-Amino-ethoxy)-ethoxy]-acetyl)3-(γ-Glu)-CO-(CH2)10-CH3)-NH2
# B15: Example 489 (peptide)
# peptide: B14 peptide with K17Q, X21K
# modifications: Y-Aib-EGT-αMeF(2F)-TSD-4Pal-Aib-I-αMeL-LD-Orn-QAQ-Aib-K((2-[2-(2-Amino-ethoxy)-ethoxy]-acetyl)2-(γ-Glu)-CO-(CH2)12-CO2H)FI-(D-Glu)-αMeY-LIEGGPSSGAPPPSK((2-[2-(2-Amino-ethoxy)-ethoxy]-acetyl)2-(γ-Glu)-CO-(CH2)12-CO2H)-NH2
# B16: Example 439 (peptide)
# peptide: B14 peptide with X21E, F22X
# modifications: Y-Aib-EGT-αMeF(2F)-TSD-4Pal-Aib-I-αMeL-LD-Orn-K((2-[2-(2-Amino-ethoxy)-ethoxy]-acetyl)3-(Y-Glu)-CO-(CH2)10-CH3)AQ-Aib-E-αMeF-I-(D-Glu)-αMeY-LIEGGPSSGAPPPSK((2-[2-(2-Amino-ethoxy)-ethoxy]-acetyl)3-(γ-Glu)-CO-(CH2)10-CH3)-NH2
# Target: human glucagon receptor (human, UniProt P47871 26-477)
# Experiment: cell-based or functional assay
row,Binder,cAMP EC50 (1.0% HSA) [µM]
1,B1,> 9.95
2,B2,> 9.95
3,B3,> 9.95
4,B4,> 9.95
5,B5,> 9.95
6,B6,> 9.95

# Target: T1, human GIP receptor
# Experiment: cell-based or functional assay
Binder,cAMP EC50 (1.0% HSA) [nM],cAMP Emax (1.0% HSA) [%]
B7,0.0875,–
B8,0.592,90.8
B9,1.17,91.4
B10,0.718,85.5
B11,0.241,96
B12,0.0994,97.5
B13,0.461,96.5
B14,0.0873,98.7
B15,0.578,79.4
B16,0.396,91.7

# Target: human glucagon receptor (human, UniProt P47871 26-477)
# Experiment: cell-based or functional assay
# Remark: another data set of the same source
# Target sequence in this assay (P47871 26-477): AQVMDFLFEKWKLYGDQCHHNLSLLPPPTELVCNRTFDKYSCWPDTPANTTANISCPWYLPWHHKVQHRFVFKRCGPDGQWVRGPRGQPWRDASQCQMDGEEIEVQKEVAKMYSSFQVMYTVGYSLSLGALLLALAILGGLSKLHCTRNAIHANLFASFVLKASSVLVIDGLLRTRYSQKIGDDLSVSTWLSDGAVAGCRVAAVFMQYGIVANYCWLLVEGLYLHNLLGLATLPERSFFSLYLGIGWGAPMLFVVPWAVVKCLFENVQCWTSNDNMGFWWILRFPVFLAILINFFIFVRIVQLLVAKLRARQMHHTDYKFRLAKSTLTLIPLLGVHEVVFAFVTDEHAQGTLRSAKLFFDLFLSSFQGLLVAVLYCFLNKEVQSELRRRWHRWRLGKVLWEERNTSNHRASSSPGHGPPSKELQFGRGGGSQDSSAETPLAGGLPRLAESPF
row,Binder,cAMP EC50 (1.0% HSA) [µM]
1,B7,> 9.95
2,B8,> 9.95
3,B9,> 9.95
4,B10,> 9.95
5,B11,> 9.95
6,B12,> 9.95
7,B13,> 9.95
8,B14,> 9.95
9,B15,> 9.95
10,B16,> 9.95

# Target: T2, human GIP receptor
# Experiment: cell-based or functional assay
row,Binder,cAMP EC50 (1.0% HSA) [nM]
1,B1,1.2
2,B2,1.73
3,B3,2.19
4,B4,1.06
5,B5,0.777
6,B6,1.24

# Target: human GLP-1 receptor (human, UniProt P43220 24-463)
# Experiment: cell-based or functional assay
Binder,cAMP EC50 (1.0% HSA) [nM],cAMP Emax (1.0% HSA) [%]
B7,1.28,–
B8,28,88.7
B9,13.1,100
B10,13,–
B11,4.98,–
B12,1.73,–
B13,9.65,91.2
B14,1.63,97.8
B15,13.5,98.7
B16,9.25,97

# Target: hGLP-1R (Homo sapiens, UniProt P43220)
# Experiment: cell-based or functional assay
Binder,cAMP EC50 [nM],cAMP Emax [%]
B7,0.0549,106
B8,0.471,88.5
B9,0.0781,103
B10,0.207,113
B11,0.102,98.9
B12,0.0837,104
B13,0.249,89.2
B14,0.0527,111
B15,0.257,112
B16,0.11,95.7

# Target: human glucagon receptor (human) (UniProt P47871)
# Experiment: cell-based or functional assay
row,Binder,cAMP EC50 [µM]
1,B7,> 9.95
2,B8,> 9.95
3,B9,> 9.95
4,B10,> 10.1
5,B11,> 9.95
6,B12,> 9.95
7,B13,> 9.95
8,B14,> 9.95
9,B15,> 10.1
10,B16,> 9.95

# Target: T3, human GIP receptor (human)
# Experiment: cell-based or functional assay
Binder,cAMP EC50 [pM],cAMP Emax [%]
B7,6.02,–
B8,15.7,98.9
B9,7.28,102
B10,11.5,104
B11,7.14,102
B12,7.04,98.3
B13,14.6,94.8
B14,5.17,104
B15,13.1,103
B16,7.99,–
